Assay results: US20200147199A1 (ROCKEFELLER UNIVERSITY, published 2020)
Where a chain is given by its changes, count along the chain named.

B1: Z040 (BRA12_81) (antibody, V domains shown)
VH: EVQLLESGGGLVQPGGSLRLSCAASGFTFSTYAMSWVRQAPGKGLEWVSAISGSGRSTYYADSVKGRFTISRDNSKNTLYLQMNSLRGEDTAVYYCAKSSGGHNWNYVDYYYGMDVWGQGTTVTVSS
VL: DIQLTQSPSFLSASVGDRVTITCRASQGISSYLAWYQQKPGKAPKLLIYAASTLQSGVPSRFSGSGSGTEFTLTISSLQPEDFATYYCQQLNSYPVTFGPGTKVDIK
B2: Z006 (MEX105_42) (antibody, V domains shown)
VH: EVQLLESGGGLVQPGGSLRLSCAASGFTFKNYAMAWVRQAPGKGLEWVSLLYNSEESTYYADSVKGRFTISRDNSKNTLFLQMNRLRVEDTAVYFCVRDRSNGWSSINLWGRGTLVTVSS
VL: DIQMTQSPSTLSASVGDRVTMTCRASQTISGWLAWYQQKPGKAPKLLIYQASRLESGIPSRFSGSGSGTEFTLTISSLQPDDVATYYCQQYSTFWTFGLGTKVEIK
B3: Z010 (MEX105_88) (antibody, V domains shown)
VH: EVQLLESGGGLVQPGGSLRLSCAASGFTFSNYAMAWVRQAPGKGLEWVSLIYSGDDSTYYADFVKGRFTISRHNSKNTLSLQMNSLRAEDTAIYYCVKDRGTGWSSIVHWGQGTLVTVSS
VL: B2 VL with M21I, G31N, R53S, I58V, V83F, F94Y, L99Q
B4: Z038 (BRA12_2) (antibody, V domains shown)
VH: EVQLLESGGGLVQPGGSLRLSCEASGFTFSNYAMNWVRQAPGKGLEWVSTLGATDNSGDSTYYVESAKGRFTISRDNSKNTLYLQMNSLRVEDTAVYFCAKDRTGNIGAGTGYFDKWGQGTLVTVSS
VL: DIQMTQSPSTLSASVGDRVTITCRASHRISGWLAWYQQKPGKAPKLLIYQASGLESGVPSRFSGSGYGTEFTLTISSLQADDFATYYCQQYNNYPWTFGQGTKVEIK
notes: also called BRA12_02
B5: Z054 (BRA138_94) (antibody, V domains shown)
VH: QLQLQESGPRLVKPSETLFLTCTVSGDSISSSSYFWGWIRQPPGKGLEWIGSISYSGSTYYNPSLKSRVTISVDTSKNQFSLKLSSVTAADTVVYYCAKHLYSSSWNIGSSFDSWGPGTLVTVSS
VL: EIVLTQSPATLSLSPGERATLSCRASQSVSIYLAWYQQKPGQAPRLLIYDASSRATGIPARFSGSGSGTDFTLTISSLEPEDFAVYYCQQRSNWPVYTFGQGTKVEIK
B6: Z004 (MEX18_89) (antibody, V domains shown)
VH: EVQLLESGGGLVQPGGSLRLTCATSGFTFRDYAMSWVRQAPGKGLEWVSSYSGIDDSTYYADSVKGRFTISRDNSKSTLSLHMNSLRAEDSALYFCAKDRGPRGVGELFDSWGQGTLVTVSS
VL: DIQMTQSPSTLSASVGDRVTITCRASQSISKWLAWYQQKPGKAPKLLIYTTSTLKSGVPSRFSGSGSGTEFTLTISSLQPDDFATYYCQHFYSVPWTFGQGTKVEIK
notes: also called biotin-Z004 (biotinylated form)
B7: Z001 (MEX18_21) (antibody, V domains shown)
VH: EVQLLESGGGLVQPGGSRRLSCATSGFSFDTYAMSWLRQAPGKGLEWVSSFSGLDDSTYYADSVKGRFTISRDNSKNTLYLQMNSLRAEDTAIYYCAKDRGPRGIGELFDFWGQGTLVTVSS
VL: B6 VL with K31R, T50K, G57E, Y92H
B8: Z028 (MEX84_p4-53) (antibody, V domains shown)
VH: EVQLLESGGGLVQPGGSLRLSCAASGFTFSAYAMSWVRQAPGKGLEWVSSINGHSDSTYFADSVKGRFTISRDNSKNTLYLQMNSLRAEDTALYYCAKDRLREGIGELFHSWGQGTLVTVSS
VL: B6 VL with V15I, S30T, K31P, L46F, T50Q, T53I, K55E, F91Y, Y92H, V94Y
B9: Z032 (BRA112_24) (antibody, V domains shown)
VH: EVQLLESGGRLVQPGGSLTLSCAASGFPFSTYAMSWLRQAPGKGLEWVSGITGDSGSTYYAASVKGRFTISRDNSKNTLYLQMNSLTADDTAVYYCAKDRLHSGLGELFSYWGQGTLVTVSS
VL: DIQMTQSPSTLSASVGDRVNITCRASQSINQWLAWYQQKPGKAPKFLMYKASTLETGVPSRFSGSGSGTEFTLTISSLQPDDFATYYCQHYFSYPWTFGQGTKVEIK
B10: Z035 (BRA112_71) (antibody, V domains shown)
VH: EVQLLESGGGLIQPGGSLRLSCAASGFTFSSYAMSWVRQAPGKGLEWVSGISGSGGASDNGASRYYADSVKGRFSISRDNSKNTVYLQMNSLRAEDTAVYYCAKDRLSGGFGELFQKWGQGTLVTVSS
VL: B9 VL with S12A, N20T, S28N, Q31S, M48I, T56S, V58A, F92Y, W96Y
B11: Z021 (MEX84_p4-23) (antibody, V domains shown)
VH: QVQLQESGPGLVKPSETLSLTCTVSGGSIDTYYWSWIRQTPGKGLEWIGCFYYSVDNHFNPSLESRVTISVDTSKNQFSLKMTSMTASDTAVYYCARNQPGGRAFDYWGPGTLVTVSS
VL: EIVLTQSPATLSLSPGQRATLSCRASQSVSNYFAWYQQKPGQAPRLLIYDTSKRATGTPARFSGSGSGTDFTLTISSLEPEDFAVYYCQERNNWPLTWTFGLGTKVEIK
B12: Z031 (BRA112_46) (antibody, V domains shown)
VH: EVQLLESGGGLVQPGGSLRLSCVASGFTFGSYGMAWVRQAPGKGLEWISSISSIDPSTYYADSVKGRFTVSRDNSENTLYLHMSSLKVEDTAVYFCAKDRLNGGFGELFASWGQGTLVTVSS
VL: DIQMTQSPSTLSASVGDSVTITCRASQSISSWLAWYQQKPGKAPKFLIHKASSLESGIPSRFSGSGSGTEFTLTINNLQPDDFATYYCQHYHSYPWTFGQGTKVEIK
B13: Z044 (BRA138_46) (antibody, V domains shown)
VH: QVQLVQSGAEVKKPGASVKVSCKASGYTFTSTYIHWVRQAPGQGLEWMGIINPSSSNTNYAQKFQGRVTMTRDTSTSTVYMELSSLRSEDTAVYYCARDFGGYSSSSVSDAFDIWGQGTMVTVSS
VL: QSALTQPASVSGSPGQSITISCTGTSSDVGSFNLVSWYQQHPGKAPKLIIYEVSKRPSGVSNRFSGSKSGNTASLTISGLQAEDEVHYYCCSYAGSSRFVFGTGTKVTVL

Experiments:
[1] = target: T1, DENV1 EDIII, polyhistidine-AviTag, produced in HEK-293-6E cells (DENV1); experiment: cross-reactivity ELISA
T1 construct: also called EDIII of DENV1

[2] = target: T2, ZIKV E Domain III ([..]), polyhistidine-AviTag, produced in HEK-293-6E cells (ZIKV); experiment: ELISA on coated ZIKV EDIII
T2 construct: also called ZEDIII; ZIKV EDIII

[3] = target: DENV3 EDIII, polyhistidine-AviTag (DENV3); experiment: cross-reactivity ELISA
[4] = target: DENV1 E protein (strain PUO-359) on RVPs or on virus (DENV1, strain PUO-359); experiment: cell-based or functional assay
[5] = target: ZIKV E protein (2015 Puerto Rican PRVABC59 strain) on virus (ZIKV, strain PRVABC59); experiment: cell-based or functional assay

T1 sequence (P17763 577-674, tags left off): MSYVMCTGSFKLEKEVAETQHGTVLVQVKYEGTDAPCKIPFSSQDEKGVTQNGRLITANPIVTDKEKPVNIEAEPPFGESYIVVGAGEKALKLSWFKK

Row | Binder | EC50 [2] [µg/mL] | binding result [3] | other results
1 | B1 | > 10 |  | binding result [1]: no binding (tested: 10 µg/ml)
2 | B2 |  | no binding (tested: 10 µg/ml) | 
3 | B3 |  | no binding (tested: 10 µg/ml) | 
4 | B4 |  | no binding (tested: 10 µg/ml) | 
5 | B5 | > 10 |  | binding result [1]: no binding (tested: 10 µg/ml)
6 | B6 |  | no binding (tested: 10 µg/ml) | IC50, DENV1 luciferase RVPs [4]: 0.0016 µg/mL; IC50, flow cytometry with authentic DENV1 [4]: 0.0164 µg/mL; IC50, plaque reduction neutralization test (PRNT) [5]: 0.0022 µg/mL
7 | B7 |  | no binding (tested: 10 µg/ml) | 
8 | B8 |  | no binding (tested: 10 µg/ml) | 
9 | B9 | 0.0195 |  | 
10 | B10 |  | no binding (tested: 10 µg/ml) | 
11 | B11 |  |  | IC50, DENV1 neutralization (flow cytometry) [4]: 0.0101 µg/mL; IC50, plaque reduction neutralization (PRNT) [5]: 0.004 µg/mL
12 | B12 |  | no binding (tested: 10 µg/ml) | 
13 | B13 | > 10 |  | binding result [1]: no binding (tested: 10 µg/ml)
